From paper PMC6750898 come the findings set out here.

For experiment [1], the target named is capsid associated protein P30 of bacteriophage PR772 (bacteriophage PR772). The experiment can be described thus: cryo-EM structure; icosahedrally averaged (I4) single-particle reconstruction of purified wild-type PR772 virions; overall 2.75 Å, capsid 2.3 Å; de-novo model of the asymmetric unit; difference density map of the vertex region.
The target in experiment [2] is penton protein P31 of bacteriophage PR772 (bacteriophage PR772). The experiment can be described thus: cryo-EM structure; localized asymmetric (C1) reconstruction of the five-fold vertex after capsid signal subtraction (about 10 Å for the class with P2; 4.41 Å for the penton) and focused classification of the penton base (4.25 Å); models fitted as rigid bodies; purified wild-type virions.

Experiment [3] concerns the target host-recognition protein P5 of bacteriophage PR772 (bacteriophage PR772). Described as above.
Experiment [4] has as its target major capsid protein P3 of bacteriophage PR772 (bacteriophage PR772). The experiment can be described thus: cryo-EM structure; icosahedrally averaged (I4) single-particle reconstruction of purified wild-type PR772 virions; overall 2.75 Å, capsid 2.3 Å; de-novo model of the asymmetric unit; difference density map of the vertex region.

As for “capsid associated protein P30 of bacteriophage PR772 (natural protein)”, in experiment [1], the stoichiometry N was determined as 2.
In experiment [2], “host-recognition protein P5 of bacteriophage PR772 (natural protein)” registered a stoichiometry N (copies of P5 in the penton base) of 3 and a stoichiometry N (copies of P31 in the penton base) of 2. In addition, the stoichiometry N in experiment [3] was 3.
“major capsid protein P3 of bacteriophage PR772 (natural protein)” returned a stoichiometry N in experiment [4] of 3.
In experiment [3], “receptor-binding protein P2 of bacteriophage PR772 (natural protein)” came in with a percent of vertex sub-particles with a density representing P2 of 16%.
